Assay results: US20140314744A1 (NEOTOPE BIOSCIENCES, published 2014)

Legend:
[1] = molecular target: T1, Recombinant human laminin-α4 (R&D systems) (human, UniProt Q16363-2 826-1816); test: SPR (Biacore T200), MCAM IgG1-2A captured by anti-Fc IgG, laminin in solution
T1 construct: also called laminin 4A chain; laminin A4 (α4) chain
T1 sequence (looked up): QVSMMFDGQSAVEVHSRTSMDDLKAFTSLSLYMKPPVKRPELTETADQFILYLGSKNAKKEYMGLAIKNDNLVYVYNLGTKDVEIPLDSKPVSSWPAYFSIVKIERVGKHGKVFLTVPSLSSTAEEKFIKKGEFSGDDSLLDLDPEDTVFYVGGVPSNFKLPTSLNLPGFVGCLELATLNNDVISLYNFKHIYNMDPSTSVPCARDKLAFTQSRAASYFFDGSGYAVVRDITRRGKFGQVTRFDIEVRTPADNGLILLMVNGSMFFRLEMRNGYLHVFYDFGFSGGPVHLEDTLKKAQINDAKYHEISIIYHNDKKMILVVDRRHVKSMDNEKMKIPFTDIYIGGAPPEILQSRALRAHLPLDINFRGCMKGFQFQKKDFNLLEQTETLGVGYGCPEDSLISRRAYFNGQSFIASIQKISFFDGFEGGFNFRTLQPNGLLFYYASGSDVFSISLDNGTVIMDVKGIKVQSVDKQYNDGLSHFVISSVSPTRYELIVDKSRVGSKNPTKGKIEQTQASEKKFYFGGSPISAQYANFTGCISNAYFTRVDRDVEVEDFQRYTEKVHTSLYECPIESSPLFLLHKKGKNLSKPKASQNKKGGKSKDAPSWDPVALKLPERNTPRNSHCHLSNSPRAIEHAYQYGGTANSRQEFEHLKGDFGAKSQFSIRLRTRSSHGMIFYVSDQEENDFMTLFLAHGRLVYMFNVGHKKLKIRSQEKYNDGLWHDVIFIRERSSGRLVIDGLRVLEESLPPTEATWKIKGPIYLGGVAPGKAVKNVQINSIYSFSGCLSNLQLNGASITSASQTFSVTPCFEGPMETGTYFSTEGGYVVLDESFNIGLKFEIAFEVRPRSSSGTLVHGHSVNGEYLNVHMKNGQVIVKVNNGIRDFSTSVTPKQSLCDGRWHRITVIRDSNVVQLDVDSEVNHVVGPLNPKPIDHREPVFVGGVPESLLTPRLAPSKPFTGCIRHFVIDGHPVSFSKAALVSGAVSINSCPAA
Method: The binding affinity of the human laminin-α4 to human MCAM IgG1-2A was measured by Surface Plasmon Resonance on a Biacore T200 machine. Human Fc-specific F(ab′)₂ IgG (Jackson Laboratories) was immobilized on a CM5 chip using amine coupling. The four flow cells of the CM5 chips dextran surface are activated by a 7 min injection of freshly prepared 1:1 50 mM NHS: EDC at a flow rate of 5 μl/min. 70 μl IgG solution (pH 4.5) was injected for 3 min to a density of up to 3 000 RU. The coupling is then blocked by a 7 min injection of 1M ethanolamine to deactivate residual reactive sites. Recombinant human Fc-tagged MCAM IgG1-2A in degassed and filtered HBS-P buffer containing 12 mg/ml BSA and 12 mg/ml carboxy-methylated dextran sodium salt was captured by anti-Fc IgG to a capture level 1560 RU. Recombinant human Fc-tagged MCAM IgG1-2A was centrifuged at 14 000 rpm for 5 min at 4° C. before injection for 20 min at a flow rate of 5 μl/min over the anti-Fc IgG containing surface. Flow cell 1 was left free of IgG to serve as a control surface. One flow cell was used to capture recombinant human IgG1 Fc (R&D systems) to serve as a negative control. […] Buffer injections served as negative control. Data evaluation: Data from the buffer injections and the control surface were subtracted to remove artifacts. […]

[2] = molecular target: T2, Recombinant human laminin 511 (Biolamina) (human, UniProt O15230 36-3695; P07942 22-1786; P11047 34-1609); test: SPR (Biacore T200)
T2 construct: Trimer α5β1γ1, bought; negative control

Ig2 domain = molecular target: T3, Ig2 domain (mouse, UniProt Q8R2Y2); test: ForteBio Octet Red, anti-human IgG Fc biosensor loaded with the Ig2 domain hFc protein, dipped into clone 17 or SP2 media
T3 construct: immunoglobulin domain 2 alone; also called Murine MCAM domain 2 (Ig2)
T3 sequence (Fc fusion chain, looked up): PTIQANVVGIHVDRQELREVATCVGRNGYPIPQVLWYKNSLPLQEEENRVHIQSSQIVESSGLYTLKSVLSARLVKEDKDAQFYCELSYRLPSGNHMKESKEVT
From the text: (§1) The following protocol was used: ForteBio Domain Mapping Protocol. ForteBio anti-human IgG Fc biosensors were used to immobilize various mouse MCAMhFc domains including full length mouse MCAMhFc protein on to biosensor surface. These sensors were dipped into either clone 15 or 17 MCAM specific antibody for detection of binding to these domains or full length protein. After loading these samples into a black 96 well plate, the Octet Red was programmed as follows: 60 seconds for baseline #1; 180 seconds for loading various domains; 60 seconds for baseline #2; 180 seconds for association of antibody to domain; and 240 seconds for dissociation of antibody from domain.
(§2) For FIG. 10A-B, clones 15 and 17 were tested against the following protein samples (all have human IgG Fc tag): […]

[3] = molecular target: T4, murine MCAM-Fc (extracellular domain of murine MCAM fused to human IgG) (mouse, UniProt Q8R2Y2 24-563); test: ForteBio Octet Red, anti-human IgG Fc biosensor loaded with mouse MCAMhFc (5 ug/ml), dipped into clone 17 (5 ug/ml) or SP2 media
T4 construct: extracellular domain; Produced in CHO cells; also called mouse MCAM-Fc protein; full length mouse MCAMhFc protein; not shown: human IgG (Fc) part
T4 sequence (looked up): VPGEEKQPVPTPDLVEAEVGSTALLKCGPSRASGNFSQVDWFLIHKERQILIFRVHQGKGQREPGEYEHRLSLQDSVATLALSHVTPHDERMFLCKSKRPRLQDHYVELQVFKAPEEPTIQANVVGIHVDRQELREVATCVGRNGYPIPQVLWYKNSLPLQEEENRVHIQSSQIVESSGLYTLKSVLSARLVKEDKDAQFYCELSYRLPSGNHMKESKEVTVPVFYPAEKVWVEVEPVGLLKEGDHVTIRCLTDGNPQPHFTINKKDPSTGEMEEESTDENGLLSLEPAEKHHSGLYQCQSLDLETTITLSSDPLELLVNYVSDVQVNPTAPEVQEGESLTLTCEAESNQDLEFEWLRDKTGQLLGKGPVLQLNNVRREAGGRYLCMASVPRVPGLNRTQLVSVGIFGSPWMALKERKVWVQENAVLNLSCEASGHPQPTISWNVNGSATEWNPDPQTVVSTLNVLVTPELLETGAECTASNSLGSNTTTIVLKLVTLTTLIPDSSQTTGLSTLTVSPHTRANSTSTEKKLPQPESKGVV
From the text: as §1, §2

[4] = molecular target: T5, human MCAM (on transfected cells) (human, UniProt P43121 24-646); test: flow cytometry on MCAM transfected cells mixed with CFSE-labelled untransfected cells
T5 construct: Cells transfected with human MCAM; also called CD146; MUC18
T5 chain: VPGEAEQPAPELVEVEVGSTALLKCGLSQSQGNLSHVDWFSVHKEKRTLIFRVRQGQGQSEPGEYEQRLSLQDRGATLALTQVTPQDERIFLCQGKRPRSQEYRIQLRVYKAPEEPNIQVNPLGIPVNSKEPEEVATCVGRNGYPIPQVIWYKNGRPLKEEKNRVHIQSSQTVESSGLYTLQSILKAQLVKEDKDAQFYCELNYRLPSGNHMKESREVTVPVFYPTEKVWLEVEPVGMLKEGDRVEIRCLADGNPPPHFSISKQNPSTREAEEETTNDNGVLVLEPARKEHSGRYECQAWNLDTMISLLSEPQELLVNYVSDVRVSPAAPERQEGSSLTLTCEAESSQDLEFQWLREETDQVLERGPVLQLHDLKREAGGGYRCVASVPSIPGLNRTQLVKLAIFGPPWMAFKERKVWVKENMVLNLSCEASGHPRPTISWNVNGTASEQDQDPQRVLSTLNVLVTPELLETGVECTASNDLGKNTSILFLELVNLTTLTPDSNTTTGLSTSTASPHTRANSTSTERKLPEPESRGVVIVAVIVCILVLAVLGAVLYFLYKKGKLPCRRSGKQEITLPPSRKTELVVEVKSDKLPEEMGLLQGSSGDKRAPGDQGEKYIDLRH
Method: (§3) MCAM-Fc was generated by fusing the extracellular domain of murine MCAM to human IgG and produced in CHO cells using standard techniques. Lou/M rats were immunized with 100 μg of MCAM-Fc protein in CFA (1:1 volume). Rats were boosted two times at two week intervals with MCAM-Fc protein in incomplete Freund's adjuvant (IFA) (1:1 volume). Hybridomas were generated from immunized rats using standard protocols and clones were selected by Clonepix. CHO cells were transfected with the full length murine MCAM gene and selected for stable expression using neomycin and standard techniques. Parental CHO cells (MCAM negative) were fluorescently labeled with carboxyfluorescein succinimidyl ester (CFSE) using standard techniques and mixed at a 1:1 ratio with unlabeled MCAM transfected CHO cells. Hybridoma supernatants were incubated with this mixture of cells for 30 minutes and binding of potential MCAM specific antibodies was detected with a fluorescently labeled anti-rat secondary antibody (Jackson Immuno) by flow cytometry.
(§4) Monoclonal antibodies against mouse MCAM were generated as described in Materials and Methods above. The specific binding between the monoclonal antibody and MCAM was confirmed by assessing the monoclonal antibody's ability to bind to cells transfected with either mouse or human MCAM. For this, untransfected cells were labeled with carboxyfluorescein succinimidyl ester (CFSE) and mixed with unlabeled MCAM transfected cells. Untransfected cells (in blue) could therefore be differentiated.

[5] = molecular target: T6, mouse MCAM (full length, on transfected CHO cells) (mouse, UniProt Q8R2Y2 24-648); test: as above
T6 construct: whole, on cells; also called murine MCAM; mouse MCAM transfected CHO cells
T6 sequence (looked up): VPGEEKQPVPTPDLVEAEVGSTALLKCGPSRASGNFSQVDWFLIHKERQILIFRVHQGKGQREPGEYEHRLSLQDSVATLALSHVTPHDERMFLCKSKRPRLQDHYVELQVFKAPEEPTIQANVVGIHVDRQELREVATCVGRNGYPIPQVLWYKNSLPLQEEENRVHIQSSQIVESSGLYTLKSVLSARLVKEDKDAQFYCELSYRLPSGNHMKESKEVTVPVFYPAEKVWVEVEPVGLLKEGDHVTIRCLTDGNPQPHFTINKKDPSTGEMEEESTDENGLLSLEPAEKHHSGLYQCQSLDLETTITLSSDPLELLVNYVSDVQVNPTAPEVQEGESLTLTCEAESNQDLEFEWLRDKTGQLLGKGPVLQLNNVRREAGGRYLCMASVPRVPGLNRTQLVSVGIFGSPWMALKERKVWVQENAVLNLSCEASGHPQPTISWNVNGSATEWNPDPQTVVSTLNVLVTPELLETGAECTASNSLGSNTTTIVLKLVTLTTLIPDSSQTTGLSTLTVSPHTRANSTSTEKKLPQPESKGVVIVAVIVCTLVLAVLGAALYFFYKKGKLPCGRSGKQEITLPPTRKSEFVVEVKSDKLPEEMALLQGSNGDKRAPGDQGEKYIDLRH
Method: as §3, §4

[6] = molecular target: T7, Murine MCAM domain 1 and 2 (Ig1-2A) with human IgG Fc tag (mouse, UniProt Q8R2Y2 24-244, limits assumed); test: ForteBio Octet Red, domains on anti-human IgG Fc biosensors
T7 construct: domain: domain 1 and 2 (Ig1-2A); also called MCAM Fc domains 1 and 2; not shown: human IgG Fc tag
T7 sequence (looked up): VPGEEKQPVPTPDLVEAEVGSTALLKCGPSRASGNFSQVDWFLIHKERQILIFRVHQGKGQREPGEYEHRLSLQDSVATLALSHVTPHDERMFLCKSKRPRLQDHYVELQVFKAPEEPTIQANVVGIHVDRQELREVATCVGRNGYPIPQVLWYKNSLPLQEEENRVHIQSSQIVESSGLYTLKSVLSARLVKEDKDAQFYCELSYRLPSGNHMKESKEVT
From the text: as §1

[7] = molecular target: T8, Murine MCAM domain 1 (Ig1) with human IgG Fc tag (mouse, UniProt Q8R2Y2 24-131, limits assumed); test: as above
T8 construct: domain: domain 1 (Ig1); also called MCAM Fc domain 1; not shown: human IgG Fc tag
T8 sequence (looked up): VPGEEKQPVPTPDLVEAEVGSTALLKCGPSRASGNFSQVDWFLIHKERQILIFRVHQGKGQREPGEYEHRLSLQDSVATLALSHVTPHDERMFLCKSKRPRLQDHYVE
From the text: as §1

B1: Recombinant human Fc-tagged MCAM IgG1-2A (Fc fusion)
chain: PRVAGVPGEAEQPAPELVEVEVGSTALLKCGLSQSQGNLSHVDWFSVHKEKRTLIFRVRQGQGQSEPGEYEQRLSLQDRGATLALTQVTPQDERIFLCQGKRPRSQEYRIQLRVYKAPEEPNIQVNPLGIPVNSKEPEEVATCVGRNGYPIPQVIWYKNGRPLKEEKNRVHIQSSQTVESSGLYTLQSILKAQLVKEDKDAQFYCELNYRLPSGNHMKESREVT
notes: also called human MCAM IgG1-2A; MCAM Fc domains 1 and 2; not shown: human Fc tag
- Kd [1]: 60 nM
- binding result [2]: no binding (tested: 5-175 nM)

B2: clone 17 monoclonal antibody (rat anti-MCAM) (antibody, V domains shown)
VH: EVQLVESGGGLVQPGRSLKLSCAASGFTFSNYYMAWVRQAPTKGLEWVASISFEGNRNHYGDSVKGRITISRDNAKSTLYLQMTSLRPEDTATYYCARHRGYSTNFYHDVLDAWGQGALVTVSS
VL: DVQMTQSPSYLATSPGESVSISCKASKNIDTYLAWYQEKPGKTNKLLIYSGSTLQSGTPSRFSGSGSGTDFTLTIRNLESEDFAVYYCQQHNEYPLTFGSGTKLEIKR
notes: Rat monoclonal from a hybridoma (Lou/M rats immunized with murine MCAM-Fc); also called anti-MCAM clone 17
- binding result (Ig2 domain): no binding (tested: 5 ug/ml)
- binding result [3]: binds
- binding result [4]: binds
- binding result [5]: binds
- binding result [6]: binds
- binding result [7]: binds
